Patent publication US20180171024A1

Tests used:
[1] = target: HLA-A2 on cells (tumor cell lines, normal primary cells, PBMCs) (human); test: flow cytometry, colonic smooth muscle cells #2940, 10 µg/ml
[2] = target: HLA-A2/CMV on T2 cells (human); test: flow cytometry, T2 cells loaded with CMV peptide
[3] = target: HLA-A2 on cells (tumor cell lines, normal primary cells, PBMCs) (human); test: flow cytometry, hepatocytes #5200-1, 10 µg/ml
[4] = target: HLA-A2/TyrD-S17 on T2 cells (human); test: flow cytometry, T2 cells loaded with TyrD-S17 [..], 10 µg/ml
[5] = target: HLA-A2 on other WT1 negative HLA-A2+ cells (other than 501, A498 and SKMEL; members not named); test: flow cytometry on JVM-2 cells (WT1 mRNA -)
[6] = target: HLA-A2/WT1 126-134 complex on T2 cells (human); test: flow cytometry, T2 cells loaded with WT1 peptide
[7] = target: HLA-A2/WT1 126-134 complex on T2 cells (human); test: flow cytometry, T2 cells loaded with WT1 peptide 1x10e-4M
P68 … (Homo sapiens) = test: flow cytometry, T2 cells loaded with 10^-4 M peptide
[8] = target: HLA-A2/Tyrosinase369-377 complex on cells (human); test: as above
[9] = target: HLA-A2/MART1(26) on T2 cells (human); test: flow cytometry, T2 cells loaded with MART1 peptide
[10] = target: HLA-A2 on cells (tumor cell lines, normal primary cells, PBMCs) (human); test: flow cytometry, SKMEL5 cells
[11] = target: HLA-A2 on cells (tumor cell lines, normal primary cells, PBMCs) (human); test: flow cytometry, A375 melanoma cells, 10 µg/ml
[12] = target: HLA-A2/TyrD-S16 on T2 cells (human); test: flow cytometry, T2 cells loaded with TyrD S16 [..], 10 µg/ml
[13] = target: HLA-A2/WT1-S10 on T2 cells (human); test: flow cytometry, peptide-loaded T2 cells (10^-4-10^-5 M), PE anti-mouse
[14] = target: HLA-A2/WT1-S6 on T2 cells (human); test: as above
[15] = target: HLA-A2/WT1 126-134 complex on T2 cells (human); test: as above
[16] = target: HLA-A2/WT1-S11 on T2 cells (human); test: as above
[17] = target: HLA-A2/WT1-S5 on T2 cells (human); test: as above
[18] = target: HLA-A2/TyrD-S3 on T2 cells (human); test: flow cytometry, T2 cells loaded with TyrD S3 [..], 10 µg/ml
[19] = target: HLA-A2 on unloaded T2 cells (human); test: flow cytometry, unloaded T2 cells, 10 µg/ml
[20] = target: HLA-A2/TyrD-S1 on T2 cells (human); test: flow cytometry, T2 cells loaded with TyrD S1 [..], 10 µg/ml
[21] = target: HLA-A2 on cells (tumor cell lines, normal primary cells, PBMCs) (human); test: flow cytometry, SK-Mel-5 melanoma cells, 10 µg/ml
[22] = target: HLA-A2/SSX-2 on T2 cells (human); test: flow cytometry, T2 cells loaded with SSX2 [..], 10 µg/ml
[23] = target: HLA-A2/GP9 on T2 cells (human); test: flow cytometry, T2 cells loaded with GP9 peptide
[24] = target: HLA-A2/TyrD-S21 on T2 cells (human); test: flow cytometry, T2 cells loaded with TyrD-S21 [..], 10 µg/ml
[25] = target: HLA-A2 on other WT1 negative HLA-A2+ cells (other than 501, A498 and SKMEL; members not named); test: flow cytometry on U266 cells (WT1 mRNA -)
[26] = target: HLA-A2/PAP 112-120 complex on T2 cells (human); test: flow cytometry, T2 cells loaded with PAP112 [..], 10 µg/ml
[27] = target: HLA-A2 on cells (tumor cell lines, normal primary cells, PBMCs) (human); test: flow cytometry, H1703 cells, 10 µg/ml
[28] = target: HLA-A2 on cells (tumor cell lines, normal primary cells, PBMCs) (human); test: flow cytometry, fibroblasts Fib, 10 µg/ml
[29] = target: HLA-A2/KIAA0355 on T2 cells (human); test: flow cytometry, T2 cells loaded with KIAA0335 [..], 10 µg/ml
[30] = target: HLA-A2 on cells (tumor cell lines, normal primary cells, PBMCs) (human); test: flow cytometry, colonic smooth muscle cells 2940, 10 µg/ml
[31] = target: HLA-A2 on unloaded T2 cells (human); test: flow cytometry, T2 cells
[32] = target: HLA-A2 on cells (tumor cell lines, normal primary cells, PBMCs) (human); test: flow cytometry, WM-115 melanoma cells, 10 µg/ml
[33] = target: HLA-A2 on cells (tumor cell lines, normal primary cells, PBMCs) (human); test: flow cytometry, SK-Mel5 melanoma cells
[34] = target: HLA-A2/TyrD-S20 on T2 cells (human); test: flow cytometry, T2 cells loaded with TyrD-S20 [..], 10 µg/ml
[35] = target: HLA-A2/P68 on T2 cells (human); test: flow cytometry, T2 cells loaded with P68 [..], 10 µg/ml
[36] = target: HLA-A2/TyrD-S19 on T2 cells (human); test: flow cytometry, T2 cells loaded with TyrD-S19 [..], 10 µg/ml
[37] = target: HLA-A2/DUSP5 on T2 cells (human); test: flow cytometry, T2 cells loaded with DUSP5 peptide
[38] = target: HLA-A2/TyrD-S15 on T2 cells (human); test: flow cytometry, T2 cells loaded with TyrD S15 [..], 10 µg/ml

**Q.** What does the source list for BB7.2 (antibody)?
**A.** MFI [1]: 744; MFI [2]: 2400; MFI [3]: 591; MFI relative to background [4]: 444; MFI [5]: 238; MFI [6]: 2320; MFI [7]: 722; MFI (P68 … (Homo sapiens)): 542; MFI [8]: 471; MFI [9]: 2500; GeoMean [10]: 281; MFI [11]: 174; MFI relative to background [12]: 421; MFI [13]: 1350; MFI [14]: 1670; MFI [15]: 2260; MFI [16]: 1670; MFI [17]: 1080; MFI relative to background [18]: 430; MFI relative to background [19]: 417; MFI relative to background [20]: 596; MFI [21]: 118; MFI relative to background [22]: 1280; MFI [23]: 2470; MFI relative to background [24]: 654; MFI [25]: 80.1; MFI relative to background [26]: 1170; MFI [27]: 351; MFI [28]: 481; MFI relative to background [29]: 714; MFI [30]: 563; GeoMean [31]: 1380; MFI [32]: 215; MFI [33]: 76; MFI relative to background [34]: 445; MFI relative to background [35]: 1220; MFI relative to background [36]: 555; MFI [37]: 2470; MFI relative to background [38]: 642
